From patent US20260132182A1 (published 2026) come the findings set out here.

Starred links: 1 amine or outer side, 2 acyl side, 3 side chain; linkers in the order of their positions; H or OH if unused. Non-standard residues stand in square brackets, D forms with d. Groups on a side chain read outwards from the residue. *: point of attachment. Butyryl(4-SO2NHCO(CH2)16Tz) = O=C(CCCCCCCCCCCCCCCCc1nnn[nH]1)NS(=O)(=O)CCCC(=O)*; C20 diacid = O=C(O)CCCCCCCCCCCCCCCCCCC(=O)*; C18 diacid = O=C(O)CCCCCCCCCCCCCCCCC(=O)*; γGlu = O=C(O)[C@H](CCC(=O)[*:2])N[*:1]; Desaminohistidyl = O=C(CCc1c[nH]cn1)*; Trx = NC[C@H]1CC[C@H](C(=O)O)CC1; AEEA = NCCOCCOCC(=O)O; Aib = CC(C)(N)C(=O)O

Sequences and labels used below:
B1: Compound 0035 (peptide)
peptide: [Desaminohistidyl]AEGTFTSDVSSYLEEQAAREFIAWLVRGRK([AEEA-AEEA-γGlu-Trx-C20 diacid])EASELSTAALGRLSAELHELATLPRTETGSGSP-NH2
B2: Compound 0125 (peptide)
peptide: H[Aib]EGTFTSDVSSYLEEQAARK(Butyryl(4-SO2NHCO(CH2)16Tz))FIAWLVRGRGEASELSTAALGRLSAELHELATLPRTETGSGSP-NH2
B3: Compound 0127 (peptide)
peptide: H[Aib]EGTFTSDVSSYLEEQAARK([AEEA-AEEA-γGlu-C18 diacid])FIAWLVRGK([AEEA-AEEA-γGlu-C18 diacid])GGEASELSTAALGRLSAELHELATLPRTETGSGSP-NH2
B4: Compound 0026 (peptide)
peptide: H[Aib]EGTFTSDVSSYLEGQAAK([AEEA-AEEA-γGlu-C18 diacid])EFIAWLVRGRGQEPGQAPEASELSTAALGRLSAELHELATLPRTETGSGSP-NH2
B5: Compound 0007 (peptide)
peptide: H[Aib]EGTFTSDVSSYLEGQAAK([AEEA-AEEA-γGlu-C18 diacid])EFIAWLVRGRGGGEASELSTAALGRLSAELHELATLPRTETGSGSP-NH2
B6: Compound 0129 (peptide)
peptide: H[Aib]EGTFTSDVSSYLEEQAARK([AEEA-AEEA-γGlu-C18 diacid])FIEWLVRGRK([AEEA-AEEA-γGlu-C18 diacid])GGEASELSTAALGRLSAELHELATLPRTETGSGSP-NH2
B7: Compound 0124 (peptide)
peptide: [Desaminohistidyl][Aib]EGTFTSDVSSYLEEQAAREFIAWLVRGRK(Butyryl(4-SO2NHCO(CH2)16Tz))EASELSTAALGRLSAELHELATLPRTETGSGSP-NH2
B8: Compound 0131 (peptide)
peptide: H[Aib]EGTFTSDVSSYLEEQAARK([γGlu-C18 diacid])FIAWLVRGRK([γGlu-C18 diacid])EASELSTAALGRLSAELHELATLPRTETGSGSP-NH2
B9: Compound 0128 (peptide)
peptide: H[Aib]EGTFTSDVSSYLEEQAARK([AEEA-AEEA-γGlu-C18 diacid])FIEWLVRGK([AEEA-AEEA-γGlu-C18 diacid])GGEASELSTAALGRLSAELHELATLPRTETGSGSP-NH2
B10: Compound 0636 (peptide)
peptide: H[Aib]EGTFTSDVSSYLEEQAARK([AEEA-AEEA-γGlu-γGlu-γGlu-C20 diacid])FIEWLVRGRQEAASELSTAALGRLSAELHQLATLPRTETGSGSP-NH2
B11: Compound 0106 (peptide)
peptide: H[Aib]EGTFTSDVSSYLEEQAARK([Ado-Ado-γGlu-C18 diacid])FIEWLVRGK([Ado-Ado-γGlu-C18 diacid])GEGQEPGGASELSTAALGRLSAELHELATLPRTETGSGSP-NH2

One assay concerns the target human GLP-1 receptor (human, UniProt P43220 24-463). Put plainly: cell-based or functional assay.
In the case of B1, the “Human GLP-1R potency [EC50 (pM)]” value amounted to 16.7 pM. The same measure, in the same setting: to B2 belongs 8 pM; to B3, 7.1 pM. On the same count and under the same terms, to B4 belongs 8.8 pM; to B5, 13.3 pM; to B6, 1.2 pM. Same read-out and setting: for B7 the value was 27.9 pM; for B8, 16.1 pM; for B9, 9.7 pM.

Another assay concerns the target T1, human amylin-3 (a) receptor (human, UniProt P30988 25-474; O60896 24-148).
T1 sequence (looked up) 1: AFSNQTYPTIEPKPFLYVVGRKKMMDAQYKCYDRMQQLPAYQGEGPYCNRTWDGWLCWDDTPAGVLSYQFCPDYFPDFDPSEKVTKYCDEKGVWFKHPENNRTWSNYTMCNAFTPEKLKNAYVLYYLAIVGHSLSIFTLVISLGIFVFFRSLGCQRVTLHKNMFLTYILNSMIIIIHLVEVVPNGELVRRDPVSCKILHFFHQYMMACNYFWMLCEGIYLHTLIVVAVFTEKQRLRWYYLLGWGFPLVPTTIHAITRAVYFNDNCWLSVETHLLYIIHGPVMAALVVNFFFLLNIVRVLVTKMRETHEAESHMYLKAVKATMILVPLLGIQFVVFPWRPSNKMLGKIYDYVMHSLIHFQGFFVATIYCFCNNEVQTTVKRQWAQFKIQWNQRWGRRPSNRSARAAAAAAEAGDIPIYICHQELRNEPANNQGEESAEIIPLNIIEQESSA
T1 sequence (looked up) 2: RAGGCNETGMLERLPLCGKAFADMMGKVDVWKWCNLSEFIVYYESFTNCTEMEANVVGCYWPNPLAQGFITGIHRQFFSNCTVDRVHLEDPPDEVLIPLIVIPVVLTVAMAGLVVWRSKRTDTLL
Put plainly: cell-based or functional assay.
For B1, the “Human AmyR3 potency [EC50 (pM)]” value is 16 pM. Consider B2, for which the “Human AmyR3 potency [EC50 (pM)]” value was found to be 12.2 pM.

For B3, the “Human AmyR3 potency [EC50 (pM)]” value worked out at 63.9 pM. In the case of B4, the “Human AmyR3 potency [EC50 (pM)]” value turned out to be 14 pM. Still for that read-out and setting: for B5 the value was 9.4 pM. With B6, the “Human AmyR3 potency [EC50 (pM)]” value stood at 23.5 pM. B10: the “Human AmyR3 potency [EC50 (pM)]” value was 8.5 pM. Still for that read-out and setting: to B11 belongs 28.4 pM. Still for that read-out and setting: to B7 belongs 24.4 pM; to B8, 14.5 pM; to B9, 110 pM.
